# Assay results from patent US20120045438A1 (Janssen / Centocor, published 2012).
# Target: T1, human IL-13 R130Q variant (R110Q of the mature chain) (human, UniProt P35225 35-146, Biotinylated on amines (NHS-LC-biotin, 4:1) in ELISA, panning and competition assays. The letters are unchanged.)
# T1 construct: R130Q counts from Met 1 of the signal peptide, R110Q on the mature chain; Bought from Peprotech; also called IL-13 R110Q; b-R130Q
# Test: Ra2 binding inhibition ELISA, mAb in crude HEK293 supernatant, IL-13 binding to IL-13Ra2
# T1 sequence (P35225 35-146 limits assumed, stated change not applied): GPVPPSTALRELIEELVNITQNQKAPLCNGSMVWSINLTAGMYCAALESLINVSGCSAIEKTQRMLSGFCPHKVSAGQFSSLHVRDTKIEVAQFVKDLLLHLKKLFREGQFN
row,% Ra2 Binding Inhibition [%],Binder
1,81.7,"mAb with Lc 1H02 (Lc6 variant) and Hc2 (antibody, V domains shown, human IgG1) VH: QVTLKESGPVLVKPTETLTLTCTVSGFSLSTYGMGVGWIRQPPGKALEWLAHIWWDDVKRYNPALKSRLTISKDTSKSQVVLTMTNMDPVDTATYYCARMGSDYDVWFDYWGQGTLVTVSS VL: EIVLTQSPATLSLSPGERATLSCRASKSISKYLAWYQQKPGQAPRLLIYSGSTLQSGIPARFSGSGSGTDFTLTISSLEPEDFAVYYCQQQDIGPYTFGQGTKLEIK"
2,72.1,"mAb with Lc 2A01 (Lc6 variant) and Hc2 (antibody, V domains shown, human IgG1) VH: QVTLKESGPVLVKPTETLTLTCTVSGFSLSTYGMGVGWIRQPPGKALEWLAHIWWDDVKRYNPALKSRLTISKDTSKSQVVLTMTNMDPVDTATYYCARMGSDYDVWFDYWGQGTLVTVSS VL: EIVLTQSPATLSLSPGERATLSCRASKSISKYLAWYQQKPGQAPRLLIYSGSTLQSGIPARFSGSGSGTDFTLTISSLEPEDFAVYYCQQHSHGPYTFGQGTKLEIK"
3,76.5,"mAb with Lc 3A09 (Lc6 variant) and Hc2 (antibody, V domains shown, human IgG1) VH: QVTLKESGPVLVKPTETLTLTCTVSGFSLSTYGMGVGWIRQPPGKALEWLAHIWWDDVKRYNPALKSRLTISKDTSKSQVVLTMTNMDPVDTATYYCARMGSDYDVWFDYWGQGTLVTVSS VL: EIVLTQSPATLSLSPGERATLSCRASKSISKYLAWYQQKPGQAPRLLIYSGSTLQSGIPARFSGSGSGTDFTLTISSLEPEDFAVYYCQQHDLGPYTFGQGTKLEIK"
4,53.9,"mAb with Lc 2E01 (Lc6 variant, Table 8) and Hc2 (antibody, V domains shown, human IgG1) VH: QVTLKESGPVLVKPTETLTLTCTVSGFSLSTYGMGVGWIRQPPGKALEWLAHIWWDDVKRYNPALKSRLTISKDTSKSQVVLTMTNMDPVDTATYYCARMGSDYDVWFDYWGQGTLVTVSS VL: EIVLTQSPATLSLSPGERATLSCRASKSISKYLAWYQQKPGQAPRLLIYSGSTLQSGIPARFSGSGSGTDFTLTISSLEPEDFAVYYCQQHNEAPYTFGQGTKLEIK"
5,50.2,"mAb with Lc 2E06 (Lc6 variant) and Hc2 (antibody, V domains shown, human IgG1) VH: QVTLKESGPVLVKPTETLTLTCTVSGFSLSTYGMGVGWIRQPPGKALEWLAHIWWDDVKRYNPALKSRLTISKDTSKSQVVLTMTNMDPVDTATYYCARMGSDYDVWFDYWGQGTLVTVSS VL: EIVLTQSPATLSLSPGERATLSCRASKSISKYLAWYQQKPGQAPRLLIYSGSTLQSGIPARFSGSGSGTDFTLTISSLEPEDFAVYYCQQHSSGPYTFGQGTKLEIK"
6,81.2,"mAb with Lc 2G01 (Lc6 variant) and Hc2 (antibody, V domains shown, human IgG1) VH: QVTLKESGPVLVKPTETLTLTCTVSGFSLSTYGMGVGWIRQPPGKALEWLAHIWWDDVKRYNPALKSRLTISKDTSKSQVVLTMTNMDPVDTATYYCARMGSDYDVWFDYWGQGTLVTVSS VL: EIVLTQSPATLSLSPGERATLSCRASKSISKYLAWYQQKPGQAPRLLIYSGSTLQSGIPARFSGSGSGTDFTLTISSLEPEDFAVYYCQQHFWGPYTFGQGTKLEIK"
7,62.5,"mAb with Lc 2H09 (Lc6 variant) and Hc2 (antibody, V domains shown, human IgG1) VH: QVTLKESGPVLVKPTETLTLTCTVSGFSLSTYGMGVGWIRQPPGKALEWLAHIWWDDVKRYNPALKSRLTISKDTSKSQVVLTMTNMDPVDTATYYCARMGSDYDVWFDYWGQGTLVTVSS VL: EIVLTQSPATLSLSPGERATLSCRASKSISKYLAWYQQKPGQAPRLLIYSGSTLQSGIPARFSGSGSGTDFTLTISSLEPEDFAVYYCQQPIDAPYTFGQGTKLEIK"
8,62.3,"mAb with Lc 2H08 (Lc6 variant) and Hc2 (antibody, V domains shown, human IgG1) VH: QVTLKESGPVLVKPTETLTLTCTVSGFSLSTYGMGVGWIRQPPGKALEWLAHIWWDDVKRYNPALKSRLTISKDTSKSQVVLTMTNMDPVDTATYYCARMGSDYDVWFDYWGQGTLVTVSS VL: EIVLTQSPATLSLSPGERATLSCRASKSISKYLAWYQQKPGQAPRLLIYSGSTLQSGIPARFSGSGSGTDFTLTISSLEPEDFAVYYCQQHLDSPYTFGQGTKLEIK"
9,62.1,"mAb with Lc 3C06 (Lc6 variant) and Hc2 (antibody, V domains shown, human IgG1) VH: QVTLKESGPVLVKPTETLTLTCTVSGFSLSTYGMGVGWIRQPPGKALEWLAHIWWDDVKRYNPALKSRLTISKDTSKSQVVLTMTNMDPVDTATYYCARMGSDYDVWFDYWGQGTLVTVSS VL: EIVLTQSPATLSLSPGERATLSCRASKSISKYLAWYQQKPGQAPRLLIYSGSTLQSGIPARFSGSGSGTDFTLTISSLEPEDFAVYYCQQHSVGPYTFGQGTKLEIK"
10,80,"mAb with Lc 2H01 (Lc6 variant) and Hc2 (antibody, V domains shown, human IgG1) VH: QVTLKESGPVLVKPTETLTLTCTVSGFSLSTYGMGVGWIRQPPGKALEWLAHIWWDDVKRYNPALKSRLTISKDTSKSQVVLTMTNMDPVDTATYYCARMGSDYDVWFDYWGQGTLVTVSS VL: EIVLTQSPATLSLSPGERATLSCRASKSISKYLAWYQQKPGQAPRLLIYSGSTLQSGIPARFSGSGSGTDFTLTISSLEPEDFAVYYCQQHDWEPYTFGQGTKLEIK"
11,74.3,"mAb with Lc 3B06 (Lc6 variant) and Hc2 (antibody, V domains shown, human IgG1) VH: QVTLKESGPVLVKPTETLTLTCTVSGFSLSTYGMGVGWIRQPPGKALEWLAHIWWDDVKRYNPALKSRLTISKDTSKSQVVLTMTNMDPVDTATYYCARMGSDYDVWFDYWGQGTLVTVSS VL: EIVLTQSPATLSLSPGERATLSCRASKSISKYLAWYQQKPGQAPRLLIYSGSTLQSGIPARFSGSGSGTDFTLTISSLEPEDFAVYYCQQHLMGPYTFGQGTKLEIK"
12,56.6,"mAb with Lc 2E04 (Lc6 variant) and Hc2 (antibody, V domains shown, human IgG1) VH: QVTLKESGPVLVKPTETLTLTCTVSGFSLSTYGMGVGWIRQPPGKALEWLAHIWWDDVKRYNPALKSRLTISKDTSKSQVVLTMTNMDPVDTATYYCARMGSDYDVWFDYWGQGTLVTVSS VL: EIVLTQSPATLSLSPGERATLSCRASKSISKYLAWYQQKPGQAPRLLIYSGSTLQSGIPARFSGSGSGTDFTLTISSLEPEDFAVYYCQQPLEAPYTFGQGTKLEIK"
13,61.9,"mAb with Lc 2C04 (Lc6 variant) and Hc2 (antibody, V domains shown, human IgG1) VH: QVTLKESGPVLVKPTETLTLTCTVSGFSLSTYGMGVGWIRQPPGKALEWLAHIWWDDVKRYNPALKSRLTISKDTSKSQVVLTMTNMDPVDTATYYCARMGSDYDVWFDYWGQGTLVTVSS VL: EIVLTQSPATLSLSPGERATLSCRASKSISKYLAWYQQKPGQAPRLLIYSGSTLQSGIPARFSGSGSGTDFTLTISSLEPEDFAVYYCQQHNFGPYTFGQGTKLEIK"
14,83,"mAb with Lc 2E12 (Lc6 variant) and Hc2 (antibody, V domains shown, human IgG1) VH: QVTLKESGPVLVKPTETLTLTCTVSGFSLSTYGMGVGWIRQPPGKALEWLAHIWWDDVKRYNPALKSRLTISKDTSKSQVVLTMTNMDPVDTATYYCARMGSDYDVWFDYWGQGTLVTVSS VL: EIVLTQSPATLSLSPGERATLSCRASKSISKYLAWYQQKPGQAPRLLIYSGSTLQSGIPARFSGSGSGTDFTLTISSLEPEDFAVYYCQQHDWSPYTFGQGTKLEIK"
15,87.6,"mAb with Lc 2C09 (Lc6 variant) and Hc2 (antibody, V domains shown, human IgG1) VH: QVTLKESGPVLVKPTETLTLTCTVSGFSLSTYGMGVGWIRQPPGKALEWLAHIWWDDVKRYNPALKSRLTISKDTSKSQVVLTMTNMDPVDTATYYCARMGSDYDVWFDYWGQGTLVTVSS VL: EIVLTQSPATLSLSPGERATLSCRASKSISKYLAWYQQKPGQAPRLLIYSGSTLQSGIPARFSGSGSGTDFTLTISSLEPEDFAVYYCQQHEWGPYTFGQGTKLEIK"
16,83.8,"mAb with Lc 2C05 (Lc6 variant) and Hc2 (antibody, V domains shown, human IgG1) VH: QVTLKESGPVLVKPTETLTLTCTVSGFSLSTYGMGVGWIRQPPGKALEWLAHIWWDDVKRYNPALKSRLTISKDTSKSQVVLTMTNMDPVDTATYYCARMGSDYDVWFDYWGQGTLVTVSS VL: EIVLTQSPATLSLSPGERATLSCRASKSISKYLAWYQQKPGQAPRLLIYSGSTLQSGIPARFSGSGSGTDFTLTISSLEPEDFAVYYCQQQDLGPYTFGQGTKLEIK"
17,67,"mAb with Lc 3A04 (Lc6 variant) and Hc2 (antibody, V domains shown, human IgG1) VH: QVTLKESGPVLVKPTETLTLTCTVSGFSLSTYGMGVGWIRQPPGKALEWLAHIWWDDVKRYNPALKSRLTISKDTSKSQVVLTMTNMDPVDTATYYCARMGSDYDVWFDYWGQGTLVTVSS VL: EIVLTQSPATLSLSPGERATLSCRASKSISKYLAWYQQKPGQAPRLLIYSGSTLQSGIPARFSGSGSGTDFTLTISSLEPEDFAVYYCQQPLDSPYTFGQGTKLEIK"
18,67.7,"mAb with Lc 2C01 (Lc6 variant) and Hc2 (antibody, V domains shown, human IgG1) VH: QVTLKESGPVLVKPTETLTLTCTVSGFSLSTYGMGVGWIRQPPGKALEWLAHIWWDDVKRYNPALKSRLTISKDTSKSQVVLTMTNMDPVDTATYYCARMGSDYDVWFDYWGQGTLVTVSS VL: EIVLTQSPATLSLSPGERATLSCRASKSISKYLAWYQQKPGQAPRLLIYSGSTLQSGIPARFSGSGSGTDFTLTISSLEPEDFAVYYCQQHSIGPYTFGQGTKLEIK"
19,55.5,"mAb with Lc 3A05 (Lc6 variant) and Hc2 (antibody, V domains shown, human IgG1) VH: QVTLKESGPVLVKPTETLTLTCTVSGFSLSTYGMGVGWIRQPPGKALEWLAHIWWDDVKRYNPALKSRLTISKDTSKSQVVLTMTNMDPVDTATYYCARMGSDYDVWFDYWGQGTLVTVSS VL: EIVLTQSPATLSLSPGERATLSCRASKSISKYLAWYQQKPGQAPRLLIYSGSTLQSGIPARFSGSGSGTDFTLTISSLEPEDFAVYYCQQHDNSPYTFGQGTKLEIK"
20,78.5,"mAb with Lc 2A12 (Lc6 variant) and Hc2 (antibody, V domains shown, human IgG1) VH: QVTLKESGPVLVKPTETLTLTCTVSGFSLSTYGMGVGWIRQPPGKALEWLAHIWWDDVKRYNPALKSRLTISKDTSKSQVVLTMTNMDPVDTATYYCARMGSDYDVWFDYWGQGTLVTVSS VL: EIVLTQSPATLSLSPGERATLSCRASKSISKYLAWYQQKPGQAPRLLIYSGSTLQSGIPARFSGSGSGTDFTLTISSLEPEDFAVYYCQQHDPGPYTFGQGTKLEIK"
21,75.8,"mAb with Lc 2A03 (Lc6 variant) and Hc2 (antibody, V domains shown, human IgG1) VH: QVTLKESGPVLVKPTETLTLTCTVSGFSLSTYGMGVGWIRQPPGKALEWLAHIWWDDVKRYNPALKSRLTISKDTSKSQVVLTMTNMDPVDTATYYCARMGSDYDVWFDYWGQGTLVTVSS VL: EIVLTQSPATLSLSPGERATLSCRASKSISKYLAWYQQKPGQAPRLLIYSGSTLQSGIPARFSGSGSGTDFTLTISSLEPEDFAVYYCQQHESGPYTFGQGTKLEIK"
